Molecular target: T1, HLA-A*02:01 (human)
T1 construct: complexes captured on streptavidin plates and detected with anti-b2m; also called peptide-receptive MHC molecules
Test: UV-exchange MHC ELISA; ++ = yield >=20%
Source text: Candidate peptides for T cell based therapies according to the present invention were further tested for their MHC binding capacity (affinity). The individual peptide-MHC complexes were produced by UV-ligand exchange, where a UV-sensitive peptide is cleaved upon UV-irradiation, and exchanged with the peptide of interest as analyzed. Only peptide candidates that can effectively bind and stabilize the peptide-receptive MHC molecules prevent dissociation of the MHC complexes. To determine the yield of the exchange reaction, an ELISA was performed based on the detection of the light chain (β2m) of stabilized MHC complexes. The assay was performed as generally described in Rodenko et al. (Rodenko et al., 2006).
96 well MAXISorp plates (NUNC) were coated over night with 2 ug/ml streptavidin in PBS at room temperature, washed 4× and blocked for 1 h at 37° C. in 2% BSA containing blocking buffer. Refolded HLA-A*02:01/MLA-001 monomers served as standards, covering the range of 15-500 ng/ml. Peptide-MHC monomers of the UV-exchange reaction were diluted 100 fold in blocking buffer. Samples were incubated for 1 h at 37° C., washed four times, incubated with 2 ug/ml HRP conjugated anti-β2m for 1 h at 37° C., washed again and detected with TMB solution that is stopped with […]. Absorption was measured at 450 nm. […]

- peptide exchange yield: 20 to 50%
B1: ALLNAILHSA (SEQ ID NO: 132) (peptide)
peptide: ALLNAILHSA
